From article PMC9718841

Tests used:
[1] = biological target: recombinant human CALM2 protein (human) (UniProt P0DP24); test: MST; labelled CALM2 at 500 nM, peptide in 16-point serial dilution, 25 °C; in the absence (1 mM EDTA, Apo-CALM2) and presence of Ca2+
[2] = biological target: recombinant human CALM2 protein (human) (UniProt P0DP24); test: MST; CaCl2

Sequence of peptide TLIQ2 (O00206 whole entry, looked up, tested part not stated): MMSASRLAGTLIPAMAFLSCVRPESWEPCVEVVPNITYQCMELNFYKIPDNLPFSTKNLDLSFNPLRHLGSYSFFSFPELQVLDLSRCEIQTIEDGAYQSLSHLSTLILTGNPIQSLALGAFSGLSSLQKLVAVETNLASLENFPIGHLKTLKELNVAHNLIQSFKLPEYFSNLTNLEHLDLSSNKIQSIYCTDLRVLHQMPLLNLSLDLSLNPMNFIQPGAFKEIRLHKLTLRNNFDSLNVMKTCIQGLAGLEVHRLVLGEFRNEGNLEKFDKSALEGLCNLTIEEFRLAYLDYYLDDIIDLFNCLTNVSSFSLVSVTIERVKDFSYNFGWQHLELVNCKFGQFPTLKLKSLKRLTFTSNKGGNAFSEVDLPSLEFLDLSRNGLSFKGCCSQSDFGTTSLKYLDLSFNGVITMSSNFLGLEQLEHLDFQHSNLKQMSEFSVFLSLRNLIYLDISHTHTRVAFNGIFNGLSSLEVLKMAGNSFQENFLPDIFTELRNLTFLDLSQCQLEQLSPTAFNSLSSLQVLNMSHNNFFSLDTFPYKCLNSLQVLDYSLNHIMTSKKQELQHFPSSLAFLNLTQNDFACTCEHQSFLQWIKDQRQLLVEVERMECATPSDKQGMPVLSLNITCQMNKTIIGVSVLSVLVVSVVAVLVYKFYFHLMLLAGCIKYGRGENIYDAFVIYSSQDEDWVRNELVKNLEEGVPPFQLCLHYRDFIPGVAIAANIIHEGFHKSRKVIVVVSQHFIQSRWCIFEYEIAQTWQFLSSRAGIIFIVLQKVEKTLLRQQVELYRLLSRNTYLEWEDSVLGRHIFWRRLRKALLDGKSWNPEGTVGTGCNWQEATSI

| Substance | Kd [1] | Kd [2] |
| --- | --- | --- |
| peptide TLIQ2 | 6.69 µM |  |
| peptide TLIQ2 (from UniProt O00206) |  | 9.03 µM |
